Assay results: patent US20240116985A1 (published 2024)
Starred links: 1 amine or outer side, 2 acyl side, 3 side chain; linkers in the order of their positions; H or OH if unused. Positions of bridges follow the written chain, without caps; N, C: chain ends. Non-standard residues stand in square brackets, D forms with d. Primed or numbered codes have the meaning given here. B5(5) = 2,2-bis(4-pentenyl)glycine, 2-amino-2-(pent-4-en-1-yl)hept-6-enoic acid (stitching residue), C=CCCCC(CCCC=C)(N[*:1])C(=O)[*:2]; B5(21) = 2-amino-2-(pent-4-en-1-yl)hept-6-enoic acid, bis(4-pentenyl)glycine (stitching residue), C=CCCCC(CCCC=C)(N[*:1])C(=O)[*:2]; (NHCyPr)AsnR = N4-cyclopropyl-L-asparagine, O=C(C[C@H](N[*:1])C(=O)[*:2])NC1CC1; (NHiPr)AsnR = N4-isopropyl-L-asparagine, CC(C)NC(=O)C[C@H](N[*:1])C(=O)[*:2]; (NHnPr)AsnR = N4-propyl-L-asparagine, CCCNC(=O)C[C@H](N[*:1])C(=O)[*:2]; (NHEt)AsnR = N4-ethyl-L-asparagine, CCNC(=O)C[C@H](N[*:1])C(=O)[*:2]; (NHMe)AsnR = N4-methyl-L-asparagine, CNC(=O)C[C@H](N[*:1])C(=O)[*:2]; TOMe = O-methyl-L-threonine, CO[C@H](C)[C@H](N[*:1])C(=O)[*:2]; Bta = N[C@@H](Cc1csc2ccccc12)C(=O)O; αAllylPro = C=CC[C@@]1(C(=O)O)CCCN1; S8 = C=CCCCCCC[C@](C)(N)C(=O)O

T1: full-length beta-Catenin (Uniprot ID P35222) (Homo sapiens (Human), UniProt P35222 1-781)
T1 construct: also called bCat; B-Catenin
T1 sequence: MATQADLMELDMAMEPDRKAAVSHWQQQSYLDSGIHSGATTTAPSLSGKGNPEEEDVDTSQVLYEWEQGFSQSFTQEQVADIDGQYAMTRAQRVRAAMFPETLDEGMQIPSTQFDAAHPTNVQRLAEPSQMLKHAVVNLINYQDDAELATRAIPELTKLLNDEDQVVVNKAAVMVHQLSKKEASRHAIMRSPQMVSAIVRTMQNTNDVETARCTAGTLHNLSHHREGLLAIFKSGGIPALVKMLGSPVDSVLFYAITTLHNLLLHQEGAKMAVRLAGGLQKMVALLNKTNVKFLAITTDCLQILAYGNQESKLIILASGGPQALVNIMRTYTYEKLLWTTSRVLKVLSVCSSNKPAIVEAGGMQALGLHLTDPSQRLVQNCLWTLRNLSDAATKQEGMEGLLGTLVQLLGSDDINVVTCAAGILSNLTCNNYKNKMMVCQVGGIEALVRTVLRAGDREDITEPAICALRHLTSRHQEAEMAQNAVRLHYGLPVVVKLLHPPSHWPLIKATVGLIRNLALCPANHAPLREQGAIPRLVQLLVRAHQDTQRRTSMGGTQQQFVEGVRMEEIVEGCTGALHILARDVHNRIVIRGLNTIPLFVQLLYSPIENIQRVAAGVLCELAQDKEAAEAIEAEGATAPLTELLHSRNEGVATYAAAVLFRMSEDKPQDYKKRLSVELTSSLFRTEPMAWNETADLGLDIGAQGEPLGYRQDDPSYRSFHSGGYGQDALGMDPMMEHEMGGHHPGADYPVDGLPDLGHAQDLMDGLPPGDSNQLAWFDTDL

T2: full-length beta-Catenin (Uniprot ID P35222) (Homo sapiens (Human), UniProt P35222 1-781)
T2 construct: also called bCat; B-Catenin
T2 sequence: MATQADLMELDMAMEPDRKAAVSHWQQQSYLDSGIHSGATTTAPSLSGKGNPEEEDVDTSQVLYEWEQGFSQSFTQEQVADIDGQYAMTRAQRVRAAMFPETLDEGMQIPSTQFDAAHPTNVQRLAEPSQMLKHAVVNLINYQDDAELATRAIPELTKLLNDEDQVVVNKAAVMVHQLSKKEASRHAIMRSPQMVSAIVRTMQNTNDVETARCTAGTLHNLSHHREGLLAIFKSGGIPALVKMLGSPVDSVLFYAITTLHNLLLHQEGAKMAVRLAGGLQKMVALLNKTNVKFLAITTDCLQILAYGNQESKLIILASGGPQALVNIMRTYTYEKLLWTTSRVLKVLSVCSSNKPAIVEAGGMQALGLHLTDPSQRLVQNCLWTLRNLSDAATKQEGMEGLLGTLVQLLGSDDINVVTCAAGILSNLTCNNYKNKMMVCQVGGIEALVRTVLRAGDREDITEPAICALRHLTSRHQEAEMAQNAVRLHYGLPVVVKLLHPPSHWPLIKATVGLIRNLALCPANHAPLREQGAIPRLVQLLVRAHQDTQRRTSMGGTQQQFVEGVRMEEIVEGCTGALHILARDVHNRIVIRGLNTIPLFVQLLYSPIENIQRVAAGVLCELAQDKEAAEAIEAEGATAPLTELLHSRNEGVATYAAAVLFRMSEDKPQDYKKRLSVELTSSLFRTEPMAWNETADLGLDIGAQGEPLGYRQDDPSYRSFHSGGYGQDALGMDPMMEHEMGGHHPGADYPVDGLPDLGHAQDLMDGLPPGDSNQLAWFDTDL


target: T1, full-length beta-Catenin (Uniprot ID …); assay: fluorescence polarization competition; full-length beta-catenin with 5FAM-labeled TCF4 residues 10-53 probe as competitor
Description: (§1) The plate was incubated protected from light for 60 minutes at 20° C. prior to read. Reads were performed on a CLARIOstar plate reader (BMG Labtech) in duplicate, and data were fitted to a 1:1 binding model with hill slope using an in-house script. All provided concentrations are final concentrations.

| IC50 | Binder |
| --- | --- |
| 5000 nM | Ac-[αAllylPro]DA[B5(21)][(NHMe)AsnR]DAAFV[S8]F[Bta]Q-NH2 (staple 1-4, 4-11) [I-540] |
| 180 nM | Ac-[αAllylPro]D[TOMe][B5(21)]DEAAFQ[S8]F[Bta]Q-NH2 (staple 1-4, 4-11, It has the same description as I-542) [I-541] |
| 5000 nM | Ac-[αAllylPro]DA[B5(21)][(NHCyPr)AsnR]DAAFV[S8]F[Bta]Q-NH2 (staple 1-4, 4-11) [I-538] |
| 5000 nM | Ac-[αAllylPro]DA[B5(21)][(NHnPr)AsnR]DAAFV[S8]F[Bta]Q-NH2 (staple 1-4, 4-11) [I-537] |
| 5000 nM | Ac-[αAllylPro]DA[B5(21)][(NHiPr)AsnR]DAAFV[S8]F[Bta]Q-NH2 (staple 1-4, 4-11) [I-535] |
| 4470 nM | Ac-[αAllylPro]DA[B5(21)][(NHEt)AsnR]DAAFV[S8]F[Bta]Q-NH2 (staple 1-4, 4-11) [I-536] |
| 109 nM | XDTXDEAAFQXFXQ (not fully specified; N-terminal Ac; PL3 at 1; TOMe at 3; B5 at 4; S8 at 11; BztA at 13; C-terminal NH2; staples PL3(1)-B5(4) and B5(4)-S8(11) by olefin metathesis) [I-542] |
| 51 nM | Ac-[αAllylPro]DL[B5(5)]DDAAFN[S8]F[Bta]Q-NH2 (staple 1-4, 4-11) [I-562] |

target: T2, full-length beta-Catenin (Uniprot ID …); assay: fluorescence polarization competition; full-length beta-catenin, competitor 5FAM-TCF4(10-53) probe
Description: as §1

| IC50 | Binder |
| --- | --- |
| 246 nM | XDLXDEAAFNXFXQI (not fully specified; N-terminal Ac; C-terminal NH2; PL3 at 1, B5 at 4, S8 at 11, BztA at 13, dIle (D-Ile) at 15; stapled PL3-B5 and B5-S8 by olefin metathesis, Stapled peptide; also called Ac-PL3-Asp-Leu-B5-Asp-Glu-Ala-Ala-Phe-Asn-S8-Phe-BztA-Gln-dIle-NH2) [I-735] |
| 4220 nM | XDLXDEAAFNXFXQI (not fully specified; N-terminal Ac; C-terminal NH2; PL3 at 1, B5 at 4, S8 at 11, BztA at 13; stapled PL3-B5 and B5-S8 by olefin metathesis, Stapled peptide; also called Ac-PL3-Asp-Leu-B5-Asp-Glu-Ala-Ala-Phe-Asn-S8-Phe-BztA-Gln-Ile-NH2) [I-732] |
| 226 nM | XDLXDEAAFNXFXHI (not fully specified; N-terminal Ac; C-terminal NH2; PL3 at 1, B5 at 4, S8 at 11, BztA at 13; stapled PL3-B5 and B5-S8 by olefin metathesis, Stapled peptide; same description as I-740, later eluting staple isomer composition; also called Ac-PL3-Asp-Leu-B5-Asp-Glu-Ala-Ala-Phe-Asn-S8-Phe-BztA-His-Ile-NH2) [I-741] |
| 159 nM | XDLXDEAAFNXFXHI (not fully specified; N-terminal Ac; C-terminal NH2; PL3 at 1, B5 at 4, S8 at 11, BztA at 13, dIle (D-Ile) at 15; stapled PL3-B5 and B5-S8 by olefin metathesis, also called Ac-PL3-Asp-Leu-B5-Asp-Glu-Ala-Ala-Phe-Asn-S8-Phe-BztA-His-dIle-NH2) [I-742] |
| 53 nM | XDLXDEAAFNXFXHA (not fully specified; N-terminal Ac; C-terminal NH2; PL3 at 1, B5 at 4, S8 at 11, BztA at 13, dAla (D-Ala) at 15; stapled PL3-B5 and B5-S8 by olefin metathesis, also called Ac-PL3-Asp-Leu-B5-Asp-Glu-Ala-Ala-Phe-Asn-S8-Phe-BztA-His-dAla-NH2) [I-739] |
| 63 nM | XDLXDEAAFNXFXHA (not fully specified; N-terminal Ac; C-terminal NH2; PL3 at 1, B5 at 4, S8 at 11, BztA at 13; stapled PL3-B5 and B5-S8 by olefin metathesis, also called Ac-PL3-Asp-Leu-B5-Asp-Glu-Ala-Ala-Phe-Asn-S8-Phe-BztA-His-Ala-NH2) [I-738] |
| 376 nM | XDLXDEAAFNXFXHI (not fully specified; N-terminal Ac; C-terminal NH2; PL3 at 1, B5 at 4, S8 at 11, BztA at 13; stapled PL3-B5 and B5-S8 by olefin metathesis, Stapled peptide; same description as I-741, earlier eluting staple isomer composition; also called Ac-PL3-Asp-Leu-B5-Asp-Glu-Ala-Ala-Phe-Asn-S8-Phe-BztA-His-Ile-NH2) [I-740] |
| 56 nM | XDLXDEAAFNXFXQA (not fully specified; N-terminal Ac; C-terminal NH2; PL3 at 1, B5 at 4, S8 at 11, BztA at 13; stapled PL3-B5 and B5-S8 by olefin metathesis, Stapled peptide; same description as I-730, earlier eluting staple isomer composition; also called Ac-PL3-Asp-Leu-B5-Asp-Glu-Ala-Ala-Phe-Asn-S8-Phe-BztA-Gln-Ala-NH2) [I-729] |
| 80 nM | XDLXDEAAFNXFXH (not fully specified; N-terminal Ac; C-terminal NH2; PL3 at 1, B5 at 4, S8 at 11, BztA at 13, dHis (D-His) at 14; stapled PL3-B5 and B5-S8 by olefin metathesis, Stapled peptide; same description as I-744, later eluting staple isomer composition; also called Ac-PL3-Asp-Leu-B5-Asp-Glu-Ala-Ala-Phe-Asn-S8-Phe-BztA-dHis-NH2) [I-745] |
| 370 nM | XDLXDEAAFNXFXQI (not fully specified; N-terminal Ac; C-terminal NH2; PL3 at 1, B5 at 4, S8 at 11, BztA at 13, dIle (D-Ile) at 15; stapled PL3-B5 and B5-S8 by olefin metathesis, Stapled peptide; also called Ac-PL3-Asp-Leu-B5-Asp-Glu-Ala-Ala-Phe-Asn-S8-Phe-BztA-Gln-dIle-NH2) [I-734] |
| 112 nM | XDLXDEAAFNXFXH (not fully specified; N-terminal Ac; C-terminal NH2; PL3 at 1, B5 at 4, S8 at 11, BztA at 13, dHis (D-His) at 14; stapled PL3-B5 and B5-S8 by olefin metathesis, Stapled peptide; also called Ac-PL3-Asp-Leu-B5-Asp-Glu-Ala-Ala-Phe-Asn-S8-Phe-BztA-dHis-NH2) [I-744] |
| 54 nM | XDLXDEAAFNXFXT (not fully specified; N-terminal Ac; C-terminal NH2; PL3 at 1, B5 at 4, S8 at 11, BztA at 13; stapled PL3-B5 and B5-S8 by olefin metathesis, Stapled peptide; same description as I-749, earlier eluting staple isomer composition; also called Ac-PL3-Asp-Leu-B5-Asp-Glu-Ala-Ala-Phe-Asn-S8-Phe-BztA-Thr-NH2) [I-748] |
| 4260 nM | XDLXDEAAFNXFXQI (not fully specified; N-terminal Ac; C-terminal NH2; PL3 at 1, B5 at 4, S8 at 11, BztA at 13; stapled PL3-B5 and B5-S8 by olefin metathesis, Stapled peptide; also called Ac-PL3-Asp-Leu-B5-Asp-Glu-Ala-Ala-Phe-Asn-S8-Phe-BztA-Gln-Ile-NH2) [I-733] |
